In the Human Domainome abundance scans (Beltran et al. 2025):
± gives the uncertainty stated by the source.

B1: Chromodomain-helicase-DNA-binding protein 4, residues 365 to 417; numbered along this chain, Q14839 (parent)
chain: YETDHQDYCEVCQQGGEIILCDTCPRAYHMVCLDPDMEKAPEGKWSCPHCEKE

Variants of: B1
Test: abundance fitness (aPCA) (normalised: wild type 0, dead -1); higher = more abundant; growth selection in yeast, the domain comes from the species named
Conditions: Homo sapiens

Abundance fitness, by site and new letter:
C24: G -0.695 ± 0.1 | V -0.99 ± 0.13 | Q -1.15 ± 0.28 | E -0.822 ± 0.17 | R -0.775 ± 0.11 | Y -1.31 ± 0.25 | W -0.901 ± 0.16 | A -1.1 ± 0.15 | F -0.882 ± 0.27 | L -1.19 ± 0.16 | N -0.401 ± 0.22 | T -0.768 ± 0.21 | I -1.18 ± 0.36 | M -0.751 ± 0.15 | P -0.652 ± 0.17 | D -0.647 ± 0.2 | S -0.681 ± 0.15
P25: Y -0.135 ± 0.25 | G -0.044 ± 0.096 | A -0.243 ± 0.11 | R -0.054 ± 0.094 | S 0.068 ± 0.11 | L -0.044 ± 0.12 | T -0.192 ± 0.22 | I -0.057 ± 0.27 | D -0.276 ± 0.18 | N 0.185 ± 0.19 | W -0.27 ± 0.13 | F 0.079 ± 0.14 | M -0.194 ± 0.15 | H -0.485 ± 0.46 | C 0.034 ± 0.15 | V -0.241 ± 0.11 | E 0.198 ± 0.12 | K -0.274 ± 0.22 | Q -0.058 ± 0.15
T23: C -0.257 ± 0.13 | S 0.033 ± 0.12 | V -0.231 ± 0.12 | D -0.052 ± 0.14 | L -0.107 ± 0.12 | I -0.236 ± 0.14 | W -0.327 ± 0.17 | Y -0.296 ± 0.18 | K -0.219 ± 0.2 | A -0.459 ± 0.13 | G -0.189 ± 0.098 | F -0.099 ± 0.15 | N -0.201 ± 0.24 | Q -0.107 ± 0.18 | P -0.922 ± 0.23 | R -0.363 ± 0.11 | H 0.312 ± 0.2 | M -0.297 ± 0.18
A27: N -0.165 ± 0.16 | I -0.421 ± 0.14 | Q -0.424 ± 0.16 | G -0.162 ± 0.099 | T -0.094 ± 0.12 | K -0.238 ± 0.18 | S -0.088 ± 0.13 | D -0.545 ± 0.2 | P -0.262 ± 0.17 | E -0.672 ± 0.14 | W -0.257 ± 0.13 | Y 0.086 ± 0.15 | V -0.077 ± 0.1 | C -0.02 ± 0.2 | L -0.15 ± 0.094 | H -0.276 ± 0.18 | F -0.172 ± 0.17
I19: C -0.25 ± 0.19 | Y -0.629 ± 0.41 | P -0.849 ± 0.19 | G -0.137 ± 0.079 | L -0.145 ± 0.11 | K 0.127 ± 0.14 | R 0.022 ± 0.094 | S -0.143 ± 0.13 | D -0.154 ± 0.15 | E -0.07 ± 0.13 | A 0.085 ± 0.097 | Q -0.124 ± 0.18 | N -0.097 ± 0.22 | T -0.101 ± 0.12 | F -0.404 ± 0.3 | W -0.199 ± 0.11 | M 0.277 ± 0.17
L20: Y -0.179 ± 0.2 | E 0.01 ± 0.12 | T 0.036 ± 0.13 | V -0.028 ± 0.1 | C -0.045 ± 0.12 | W -0.146 ± 0.12 | I 0.023 ± 0.15 | S -0.013 ± 0.096 | M -0.011 ± 0.14 | F -0.096 ± 0.17 | H 0.143 ± 0.17 | A 0.08 ± 0.1 | R 0.113 ± 0.089 | Q -0.022 ± 0.18 | N -0.083 ± 0.14 | P 0.149 ± 0.12 | D 0.178 ± 0.12
C12: L -0.962 ± 0.11 | T -0.46 ± 0.13 | H -0.948 ± 0.45 | E -0.683 ± 0.12 | N -0.605 ± 0.28 | Y -1.07 ± 0.15 | M -0.643 ± 0.14 | G -0.799 ± 0.1 | D -0.944 ± 0.28 | K -0.775 ± 0.17 | I -0.342 ± 0.23 | W -0.948 ± 0.13 | A -0.952 ± 0.13 | V -0.887 ± 0.1 | R -0.87 ± 0.1 | S -0.977 ± 0.12 | Q -0.49 ± 0.27 | F -0.529 ± 0.37
R26: I -0.014 ± 0.15 | E -0.356 ± 0.17 | S -0.134 ± 0.11 | D -0.249 ± 0.17 | W -0.791 ± 0.15 | C -0.462 ± 0.16 | T -0.191 ± 0.12 | V -0.226 ± 0.1 | A -0.137 ± 0.11 | K -0.065 ± 0.17 | L -0.231 ± 0.1 | M 0.183 ± 0.14 | G -0.112 ± 0.094 | F -0.288 ± 0.14 | P -0.348 ± 0.17 | H -0.273 ± 0.23 | Y -0.413 ± 0.21
G16: E 0.12 ± 0.12 | P -0.347 ± 0.12 | Y -0.262 ± 0.32 | S 0.069 ± 0.098 | F -0.469 ± 0.26 | K 0.026 ± 0.16 | R 0.009 ± 0.082 | H -0.12 ± 0.2 | D 0.29 ± 0.17 | T 0.242 ± 0.12 | A -0.114 ± 0.1 | Q 0.036 ± 0.14 | N 0.144 ± 0.22 | M -0.095 ± 0.16 | L -0.016 ± 0.1 | V -0.341 ± 0.1 | C -0.32 ± 0.2 | I -0.08 ± 0.22
V11: I -0.064 ± 0.1 | M 0.223 ± 0.15 | C 0.063 ± 0.12 | Y 0.008 ± 0.14 | K 0.127 ± 0.13 | L 0.134 ± 0.094 | P -0.257 ± 0.15 | Q -0.268 ± 0.18 | N 0.223 ± 0.16 | F 0.262 ± 0.14 | A -0.098 ± 0.12 | T 0.195 ± 0.13 | G 0.129 ± 0.084 | W -0.019 ± 0.12 | S -0.085 ± 0.1 | H 0.155 ± 0.2
Y28: F 0.012 ± 0.16 | I -0.295 ± 0.14 | L -0.073 ± 0.098 | E -0.649 ± 0.12 | H 0.023 ± 0.22 | C -0.582 ± 0.16 | D -0.526 ± 0.19 | K -0.267 ± 0.16
D22: P -0.721 ± 0.26 | A 0.056 ± 0.098 | W -0.219 ± 0.14 | Q 0.083 ± 0.21 | L -0.34 ± 0.13 | S -0.272 ± 0.12 | T 0.089 ± 0.12 | V -0.065 ± 0.11 | F -0.129 ± 0.19 | H -0.528 ± 0.28 | Y -0.42 ± 0.23 | N -0.101 ± 0.14 | I 0.03 ± 0.2 | G -0.021 ± 0.09
E17: T -0.033 ± 0.11 | Q -0.135 ± 0.17 | K -0.153 ± 0.15 | R -0.115 ± 0.086 | A -0.149 ± 0.12 | I -0.199 ± 0.14 | C -0.308 ± 0.14 | G -0.171 ± 0.1 | M -0.149 ± 0.15 | Y -0.055 ± 0.13 | V -0.076 ± 0.11 | H -0.11 ± 0.16 | W -0.412 ± 0.12 | L -0.322 ± 0.085 | F -0.222 ± 0.11 | D -0.109 ± 0.12 | S -0.033 ± 0.09 | N 0.115 ± 0.13
C21: M -0.911 ± 0.17 | D -0.657 ± 0.21 | W -0.738 ± 0.14 | N -0.983 ± 0.27 | E -0.893 ± 0.19 | V -0.877 ± 0.13 | F -1.11 ± 0.26 | T -0.467 ± 0.19 | Y -0.765 ± 0.23 | R -0.743 ± 0.13 | K -0.734 ± 0.17 | S -0.889 ± 0.17 | P -1.11 ± 0.24 | Q -0.468 ± 0.27 | L -1.06 ± 0.15 | A -0.882 ± 0.14 | I -0.802 ± 0.36
G15: Q -0.046 ± 0.17 | K -0.033 ± 0.25 | E -0.162 ± 0.12 | P -0.136 ± 0.23 | L -0.052 ± 0.12 | D 0.176 ± 0.14 | N -0.328 ± 0.3 | T -0.003 ± 0.14 | M -0.028 ± 0.18 | F -0.178 ± 0.21 | S -0.013 ± 0.11 | Y -0.571 ± 0.23 | I -0.664 ± 0.33 | A -0.028 ± 0.12 | R 0.075 ± 0.095 | W -0.216 ± 0.14 | C -0.524 ± 0.17
Y8: W -0.107 ± 0.14 | T 0.221 ± 0.11 | V -0.124 ± 0.088 | R 0.155 ± 0.098
I18: Q -0.14 ± 0.14 | A -0.123 ± 0.12 | P -0.369 ± 0.14 | W -0.218 ± 0.1 | S -0.081 ± 0.1 | Y -0.231 ± 0.17 | C -0.216 ± 0.12 | H -0.408 ± 0.3 | F 0.158 ± 0.16 | D -0.058 ± 0.14 | M 0.022 ± 0.11 | T 0.221 ± 0.15 | V -0.161 ± 0.1 | E 0.046 ± 0.15 | G -0.042 ± 0.087 | K -0.305 ± 0.18 | R -0.06 ± 0.086
E10: F -0.015 ± 0.14 | P -0.157 ± 0.14 | Q -0.358 ± 0.24 | N -0.182 ± 0.24 | L 0 ± 0.12 | W 0.015 ± 0.14 | S 0.035 ± 0.11 | Y 0.133 ± 0.21 | R -0.022 ± 0.11 | K -0.063 ± 0.15 | V -0.197 ± 0.1 | A -0.155 ± 0.1 | I 0.204 ± 0.2 | T -0.093 ± 0.15 | C -0.26 ± 0.17 | H -0.383 ± 0.17
Q14: H -0.23 ± 0.26 | P -0.826 ± 0.19 | R 0.162 ± 0.083 | C -0.337 ± 0.12 | Y -0.338 ± 0.23 | G -0.013 ± 0.11 | S -0.239 ± 0.095 | W -0.342 ± 0.13 | N -0.362 ± 0.16 | A -0.307 ± 0.17 | F 0.06 ± 0.14 | I -0.084 ± 0.15 | K 0.002 ± 0.16 | L -0.347 ± 0.11 | E 0.223 ± 0.28
C9: F -1.09 ± 0.21 | A -0.929 ± 0.11 | Q -0.845 ± 0.14 | I -0.868 ± 0.17 | E -0.943 ± 0.15 | Y -1.02 ± 0.12 | V -1.01 ± 0.11 | M -0.562 ± 0.14 | P -0.712 ± 0.16 | R -0.678 ± 0.11 | H -0.739 ± 0.22 | S -0.676 ± 0.099 | L -0.717 ± 0.096 | D -0.777 ± 0.16 | T -0.791 ± 0.14 | G -0.825 ± 0.094
Q13: L -0.091 ± 0.11 | A 0.206 ± 0.12 | Y -0.117 ± 0.18 | C -0.045 ± 0.14 | I -0.208 ± 0.24 | N 0.255 ± 0.16 | H -0.135 ± 0.18 | D 0.12 ± 0.33 | K -0.474 ± 0.18 | M 0.156 ± 0.15 | T -0.015 ± 0.14 | F -0.063 ± 0.23 | E -0.036 ± 0.13 | W -0.255 ± 0.12 | V -0.018 ± 0.1 | P -0.702 ± 0.17 | G 0.037 ± 0.09 | S 0.008 ± 0.11
